# Test results: the supplement of paper PMC10567573
# B1: BTBD1 (parent)
# chain: IVGFGLYGSIHGPTDYQVNIQIIE
# Variants of: B1
# Experiment: protein stability index of a GFP-peptide fusion (GPS, HEK-293T) (PSI 1-6); higher = more stable
# Details: c terminus: a fixed tail appended
# 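Also: lentivirally expressed fusions sorted by FACS into six bins by GFP to DsRed ratio, PSI derived from sequencing read proportions per bin multiplied by bin number.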
row,Variant,protein stability index
1,IVGFGLYGSIHGPTNYQVNIQIIE,2.36
2,IVGFGLYGSIHGPTVYQVNIQIIE,2.67
3,IVGFGLYGSIHGPTIYQVNIQIIE,3.86
4,IVGFGLYGSIHGPTPYQVNIQIIE,2.37
5,IVGFGLYGSIHGPTEYQVNIQIIE,3.19
6,IVGFGLYGSIHGPTMYQVNIQIIE,2.99
7,IVGFGLYGSIHGPTGYQVNIQIIE,2.52
8,IVGFGLYGSIHGPTAYQVNIQIIE,2.57
9,IVGFGLYGSIHGPTYYQVNIQIIE,3.42
10,IVGFGLYGSIHGPTLYQVNIQIIE,3.05
11,IVGFHLYGSIHGPTDYQVNIQIIE,2.33
12,IVGFDLYGSIHGPTDYQVNIQIIE,2.4
13,IVGFSLYGSIHGPTDYQVNIQIIE,1.62
14,IVGFQLYGSIHGPTDYQVNIQIIE,3.76
15,IVGFNLYGSIHGPTDYQVNIQIIE,3.75
16,IVGFRLYGSIHGPTDYQVNIQIIE,2.57
17,IVGFTLYGSIHGPTDYQVNIQIIE,2.89
18,IVGFKLYGSIHGPTDYQVNIQIIE,2.34
19,IVGFCLYGSIHGPTDYQVNIQIIE,2.63
20,IVGFYLYGSIHGPTDYQVNIQIIE,3.17
21,IVGFMLYGSIHGPTDYQVNIQIIE,2.92
22,IVGFWLYGSIHGPTDYQVNIQIIE,2.79
23,IVGFALYGSIHGPTDYQVNIQIIE,4.32
24,IVGFPLYGSIHGPTDYQVNIQIIE,2.36

row,Variant,protein stability index
1,IVGFGLYGSIKGPTDYQVNIQIIE,1.55
2,IVGFGLYGSICGPTDYQVNIQIIE,2.58
3,IVGFGLYGSINGPTDYQVNIQIIE,3.26
4,IVGFGLYGSIDGPTDYQVNIQIIE,1.97
5,IVGFGLYGSIVGPTDYQVNIQIIE,3.12
6,IVGFGLYGSIPGPTDYQVNIQIIE,2.57
7,IIGFGLYGSIHGPTDYQVNIQIIE,2.6
8,IQGFGLYGSIHGPTDYQVNIQIIE,4.24
9,IWGFGLYGSIHGPTDYQVNIQIIE,3.31
10,IYGFGLYGSIHGPTDYQVNIQIIE,2.16
11,IMGFGLYGSIHGPTDYQVNIQIIE,2.49
12,IDGFGLYGSIHGPTDYQVNIQIIE,2.79
13,IPGFGLYGSIHGPTDYQVNIQIIE,1.76
14,IKGFGLYGSIHGPTDYQVNIQIIE,2.02
15,IRGFGLYGSIHGPTDYQVNIQIIE,2.96
16,IGGFGLYGSIHGPTDYQVNIQIIE,2.59
17,IVWFGLYGSIHGPTDYQVNIQIIE,4.95
18,IVFFGLYGSIHGPTDYQVNIQIIE,3.55
19,IVDFGLYGSIHGPTDYQVNIQIIE,3.42
20,IVPFGLYGSIHGPTDYQVNIQIIE,2.64
21,IVEFGLYGSIHGPTDYQVNIQIIE,2.82
22,IVSFGLYGSIHGPTDYQVNIQIIE,1.66
23,IVNFGLYGSIHGPTDYQVNIQIIE,3.38
24,IVRFGLYGSIHGPTDYQVNIQIIE,4.02

row,Variant,protein stability index
1,IVVFGLYGSIHGPTDYQVNIQIIE,3.82
2,IVKFGLYGSIHGPTDYQVNIQIIE,3.18
3,IVAFGLYGSIHGPTDYQVNIQIIE,3.04
4,IVGFGLWGSIHGPTDYQVNIQIIE,3.5
5,IVGFGLMGSIHGPTDYQVNIQIIE,2.82
6,IVGFGLFGSIHGPTDYQVNIQIIE,1.86
7,IVGFGLEGSIHGPTDYQVNIQIIE,3.6
8,IVGFGLKGSIHGPTDYQVNIQIIE,3.4
9,IVGFGLSGSIHGPTDYQVNIQIIE,2.47
10,IVGFGLNGSIHGPTDYQVNIQIIE,2.96
11,IVGFGLHGSIHGPTDYQVNIQIIE,3.81
12,IVGFGLGGSIHGPTDYQVNIQIIE,2.06
13,IVGFGLPGSIHGPTDYQVNIQIIE,3.54
14,IVGFGLCGSIHGPTDYQVNIQIIE,2.57
15,IVGFGLRGSIHGPTDYQVNIQIIE,4.6
16,IVGFGLVGSIHGPTDYQVNIQIIE,2.16
17,IVGFGLYGSIHGPWDYQVNIQIIE,2.9
18,IVGFGLYGSIHGPQDYQVNIQIIE,3.12
19,IVGFGLYGSIHGPYDYQVNIQIIE,3.03
20,IVGFGLYGSIHGPCDYQVNIQIIE,2.51
21,IVGFGLYGSIHGPVDYQVNIQIIE,2.82
22,IVGFGLYGSIHGPMDYQVNIQIIE,3.23
23,IVGFGLYGSIHGPIDYQVNIQIIE,2.73
24,IVGFGLYGSIHGPHDYQVNIQIIE,2.71

row,Variant,protein stability index
1,IVGFGLYGSIHGPSDYQVNIQIIE,3.24
2,IVGFGLYGSIHGPRDYQVNIQIIE,4.46
3,IVGFGLYGSIHGPPDYQVNIQIIE,3.3
4,IVGFGLYGSIHGPDDYQVNIQIIE,2.94
5,IVGFGLYGSIHGPNDYQVNIQIIE,2.95
6,IVGAGLYGSIHGPTDYQVNIQIIE,1.97
7,IVGTGLYGSIHGPTDYQVNIQIIE,2.1
8,IVGPGLYGSIHGPTDYQVNIQIIE,1.87
9,IVGQGLYGSIHGPTDYQVNIQIIE,1.9
10,IVGIGLYGSIHGPTDYQVNIQIIE,3.05
11,IVGSGLYGSIHGPTDYQVNIQIIE,2.07
12,IVGRGLYGSIHGPTDYQVNIQIIE,2.25
13,IVGMGLYGSIHGPTDYQVNIQIIE,2.47
14,IVGWGLYGSIHGPTDYQVNIQIIE,1.8
15,IVGGGLYGSIHGPTDYQVNIQIIE,1.56
16,IVGDGLYGSIHGPTDYQVNIQIIE,2.64
17,IVGHGLYGSIHGPTDYQVNIQIIE,2.54
18,IVGCGLYGSIHGPTDYQVNIQIIE,2.29
19,IVGKGLYGSIHGPTDYQVNIQIIE,2.39
20,IVGLGLYGSIHGPTDYQVNIQIIE,3.57
21,IVGFGLYGSIHGPTDYAVNIQIIE,3.68
22,IVGFGLYGSIHGPTDYCVNIQIIE,2.49
